Experimental data from patent US20240277803A1, “NME INHIBITORS AND METHODS OF USING NME INHIBITORS” (Minerva Biotechnologies Corporation, priority 2013, published 2024).

Legend:
[1] = molecular target: T1, MUC1* extra cellular domain peptides (Homo sapiens, UniProt P15941); experiment: ELISA sandwich assay, NME7-AB dimerizes MUC1* peptide (FIG. 8); assay type: binding
T1 sequence (P15941 1110-1154): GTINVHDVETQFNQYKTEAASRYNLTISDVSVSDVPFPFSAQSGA
Source text: We made several constructs for expression of a human NME7. One of these constructs expressed well in E. coli, was secreted in soluble form as a monomer and functioned approximately as NME1 dimers did for promoting stem cell growth, pluripotency and inhibition of differentiation. In this construct, the leader sequence “DM10” was omitted from the sequence. This generated a species that was approximately the same molecular weight, 33 kDa, as the secreted form of the protein. The protein was made as a Histidine tagged protein and first purified over an NTA-Ni column, then by FPLC with greater than 98% purity. We call this form of NME7, NME7-AB. […]
The PSMGFR peptide bearing a C-terminal Cysteine (PSMGFR-Cys) was covalently coupled to BSA using Imject Maleimide activated BSA kit (Thermo Fisher). […] After 1h at RT the plate was washed 3× with PBS-T and binding of NME7 was measured at 415 nm using a ABTS solution (Pierce). […]
After 1h at RT the plate was washed 3× with PBS-T and HisTagged PSMGFR peptide (PSMGFR-His) or biotinylated PSMGFR peptide (PSMGFR-biotin), diluted in PBS-T+1% BSA, was added at different concentration. […] After 1h at RT the plate was washed 3× with PBS-T and binding of PSMGFR peptide to NME7 already bound to another PSMGFR peptide (which could not signal by anti-His antibody or by streptavidin) coupled BSA was measured at 415 nm using a ABTS solution (Pierce).

[2] = molecular target: T2, MUC1* extra cellular domain peptide (Homo sapiens, UniProt P15941); experiment: gold nanoparticle binding assay, NME7 and MUC1* peptide (FIG. 7); conditions: protein added free in solution
T2 sequence (P15941 with tags, fused parts or gaps): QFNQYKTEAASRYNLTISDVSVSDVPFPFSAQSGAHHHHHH
Description: Gold nanoparticles of a diameter of 30.0 nm were coated with an NTA-SAM surface according to Thompson et al. (ACS Appl. Mater. Interfaces, 2011, 3 (8), pp 2979-2987). The NTA-SAM coated gold nanoparticles were then activated with an equal volume of 180 uM NiSO4, incubated for 10 min at room temperature, washed, and resuspended in a 10 mM phosphate buffer ([…]). The gold nanoparticles were then loaded with PSMGER N-10 peptide ([…] (SEQ ID NO:155)) at 0.5 uM final concentration, and incubated at room temperature for 10 min. Recombinant NME7-AB protein expressed and purified from E. coli was added free in solution at the concentrations indicated. When particle-immobilized proteins bind to each other, or simultaneously bind to two different peptides on two different particles, the particle solution color changes from pink/red to purple/blue. If the protein added free in solution causes particle aggregation, it is strong evidence that the free protein dimerizes the cognate peptide, since binding to a single peptide would not induce two or more particles to be brought into close proximity to each other.
The NME7-AB is added free in solution at the concentrations indicated. Solution color change from pink to purple/blue from particle aggregation indicates binding between the MUC1* peptide on the particles and NME7 free in solution. […] Particle aggregation, indicating NME7 can simultaneously bind to two peptides is observed. […] The T47D breast cancer cell line Lysate, which contains native NME7 turns noticeably purple also.

[3] = tested on: T47D breast cancer cells; experiment: engraftment and growth of T47D cells mixed with NME7-AB in mice (FIG. 51); assay type: in vivo, Immune-compromised mice
Source text: For example, some cancer cells are very difficult to engraft in animals. We increased the engraftment rate of cancer cells by several fold by injecting the animal with human NME7 or NME7-AB. Immune-compromised mice were implanted with T47D breast cancer cells that were mixed 50/50 vol/vol with either Matrigel or NME7-AB. After 10 days, the mice that had received the NME7 mixed cells were additionally injected with NME7-AB every day (FIG. 51). […] Engraftment rates, decreased numbers of required cells and a faster tumor growth rate resulted when NME7-AB was mixed with the cancer cells when implanted and when the mice were injected every 24 or 48 hours after implantation. A range of ratios of cancer cells to NME7 or the injection schedule of NME7 is expected to vary from one mouse strain to another and from one tumor type to another. In an improvement over this method, animals that are transgenic for human NME7 or NME7-AB greatly increase engraftment rates of cancer cells and thus, decrease the number of cells required to develop into a tumor in an animal. This allows growth of primary patient cancer cells in an animal expressing human NME7 or NME7-AB.

B1: NME7-AB: recombinant human NME7 of NDPK A and B domains without the DM10 leader sequence, ~33 kDa (SEQ ID NO:39) (protein, listed as Homo sapiens)
chain: MEKTLALIKPDAISKAGEIIEIINKAGFTITKLKMMMLSRKEALDFHVDHQSRPFFNELIQFITTGPIIAMEILRDDAICEWKRLLGPANSGVARTDASESIRALFGTDGIRNAAHGPDSFASAAREMELFFPSSGGCGPANTAKFTNCTCCIVKPHAVSEGLLGKILMAIRDAGFEISAMQMFNMDRVNVEEFYEVYKGVVTEYHDMVTEMYSGPCVAMEIQQNNATKTFREFCGPADPEIARHLRPGTLRAIFGKTKIQNAVHCTDLPEDGLLEVQYFFKILDN
modifications: Human NME7-AB
- simultaneous binding of two MUC1* extra cellular domain peptides (ELISA) [1]: can simultaneously bind two MUC1* extra cellular domain peptides
- binding to MUC1* peptide on nanoparticles (color change pink to purple/blue) [2]: turned purple almost immediately
- binding to MUC1* peptide on nanoparticles (color change pink to purple/blue) ([2]; listed as NME7): has two binding sites for the MUC1* peptide
- engraftment rate of cancer cells ([3]; animal injected with human NME7 or NME7-AB): several fold
- tumor size and growth rate ([3]; cells mixed 50/50 vol/vol with NME7-AB, then injected every day, tumor promotion): larger tumors that grew at an accelerated rate
